# Data: publication PMC7948961, “Proteomic identification and validation of novel interactions of the putative tumor suppressor PRELP with membrane proteins including IGFI-R and p75NTR” (The Journal of Biological Chemistry, 2021)
# B1: Recombinant, soluble p75NTR (rsp75NTR), extracellular domain of human p75NTR (residues 1-161) with a C-terminal hexahistidine tag (domain or fragment)
# chain: KEACPTGLYTHSGECCKACNLGEGVAQPCGANQTVCEPCLDSVTFSDVVSATEPCKPCTECVGLQSMSAPCVEADDAVCRCAYGYYQDETTGRCEACRVCEAGSGLVFSCQDKQNTVCEECPDGTYSDEANHVDPCLPCTVCEDTERQLRECTRWADAECE
# modifications: Printed residues 1-161 are read as mature numbering (signal 1-28, offset +28): 161+28=189 falls at the end of the fourth cysteine-rich repeat, and the same paper's IGFI-R 1-905 is mature numbering …
# B2: Recombinant PRELP (rPRELP), human PRELP with a C-terminal FLAG tag, from Mimic Sf9 cells (natural protein, UniProt P51888 21-382, looked up)
# chain: QPTRRPRPGTGPGRRPRPRPRPTPSFPQPDEPAEPTDLPPPLPPGPPSIFPDCPRECYCPPDFPSALYCDSRNLRKVPVIPPRIHYLYLQNNFITELPVESFQNATGLRWINLDNNRIRKIDQRVLEKLPGLVFLYMEKNQLEEVPSALPRNLEQLRLSQNHISRIPPGVFSKLENLLLLDLQHNRLSDGVFKPDTFHGLKNLMQLNLAHNILRKMPPRVPTAIHQLYLDSNKIETIPNGYFKSFPNLAFIRLNYNKLTDRGLPKNSFNISNLLVLHLSHNRISSVPAINNRLEHLYLNNNSIEKINGTQICPNDLVAFHDFSSDLENVPHLRYLRLDGNYLKPPIPLDLMMCFRLLQSVVI
# notes: Proline and arginine-rich end leucine-rich repeat protein (PRELP), human; secreted into the supernatant; No cleavage of the FLAG tag is described; source: Mimic Sf9 (baculovirus), purified from the supernatant (DDDDK-tagged Protein Purification Gel twice, Benzonase, SEC)
# Assays:
# [1] = target: B2; experiment: SPR; Biacore 2000; rPRELP immobilised by amine coupling on CM5 at around 4000 RU; rsIGFI-R or rsp75NTR injected at 30 μl/min; 10 mM HEPES pH 7.5, 150 mM NaCl, 0.05% Tween-20, 15 °C; KD from fitting the equilibrium curve, three independent measurements; conditions: both partners purified
# [2] = target: T1, Recombinant, soluble IGFI-R (rsIGFI-R), extracellular domain of human IGFI-R (residues 1-905) with a … (human, UniProt P08069 31-935); experiment: as above; conditions: both partners purified
# T1 construct: Insulin-like growth factor 1 receptor, human, extracellular domain, residues 1-905; 31-935 of the precursor P08069; also called extracellular domain of IGFI-R; source: ExpiCHO, transiently transfected, purified from the supernatant (Ni-NTA, SEC)
Binder,Kd [1] [µM],Kd [2] [µM]
B1,12.1,
B2,,6.8
